Data from patent US20200165325A1.

Key:
[1] = target: HIV-1 Env of strain 0330.v4.c3 (HIV-1)
[2] = target: HIV-1 Env of strain 0815.v3.c3 (HIV-1)
[3] = target: HIV-1 Env of strain 1054_07_TC4_1499 (HIV-1)
[4] = target: HIV-1 Env of strain 1056_10_TA11_1826 (HIV-1)
[5] = target: HIV-1 Env of strain 211-9 (HIV-1)
[6] = target: HIV-1 Env of strain 231966.c02 (HIV-1)
[7] = target: HIV-1 Env of strain 3016.v5.c45 (HIV-1)
[8] = target: HIV-1 Env of strain 3103.v3.c10 (HIV-1)
[9] = target: HIV-1 Env of strain 3415.v1.c1 (HIV-1)
[10] = target: HIV-1 Env of strain 3718.v3.c11 (HIV-1)
[11] = target: HIV-1 Env of strain 6480.v4.c25 (HIV-1)
[12] = target: HIV-1 Env of strain 6535.3 (HIV-1)
[13] = target: HIV-1 Env of strain 6540.v4.c1 (HIV-1)
[14] = target: HIV-1 Env of strain 6811.v7.c18 (HIV-1)
[15] = target: HIV-1 Env of strain 928-28 (HIV-1)
[16] = target: HIV-1 Env of strain AC10.0.29 (HIV-1)
[17] = target: HIV-1 Env of strain C3347.c11 (HIV-1)
[18] = target: HIV-1 Env of strain CAAN5342.A2 (HIV-1)
[19] = target: HIV-1 Env of strain CAP45.2.00.G3 (HIV-1)
[20] = target: HIV-1 Env of strain CNE17 (HIV-1)
[21] = target: HIV-1 Env of strain CNE20 (HIV-1)
[22] = target: HIV-1 Env of strain CNE21 (HIV-1)
[23] = target: HIV-1 Env of strain CNE30 (HIV-1)
[24] = target: HIV-1 Env of strain CNE53 (HIV-1)
[25] = target: HIV-1 Env of strain CNE58 (HIV-1)
[26] = target: HIV-1 Env of strain Ce0393_C3 (HIV-1)
[27] = target: HIV-1 Env of strain Ce1176_A3 (HIV-1)
[28] = target: HIV-1 Env of strain Ce2010_F5 (HIV-1)
[29] = target: HIV-1 Env of strain Ce2060_G9 (HIV-1)
[30] = target: HIV-1 Env of strain Ce703010054_2A2 (HIV-1)
[31] = target: HIV-1 Env of strain Du156.12 (HIV-1)
[32] = target: HIV-1 Env of strain Du172.17 (HIV-1)
[33] = target: HIV-1 Env of strain HIV-16845-2.22 (HIV-1)
[34] = target: HIV-1 Env of strain P0402_c2_11 (HIV-1)
[35] = target: HIV-1 Env of strain P1981_C5_3 (HIV-1)
[36] = target: HIV-1 Env of strain Q259.d2.17 (HIV-1)
[37] = target: HIV-1 Env of strain Q461.e2 (HIV-1)
[38] = target: HIV-1 Env of strain Q769.d22 (HIV-1)
[39] = target: HIV-1 Env of strain Q842.d12 (HIV-1)
[40] = target: HIV-1 Env of strain REJO4541.67 (HIV-1)
[41] = target: HIV-1 Env of strain RHPA4259.7 (HIV-1)
[42] = target: HIV-1 Env of strain SC422661.8 (HIV-1)
[43] = target: HIV-1 Env of strain T250-4 (HIV-1)
[44] = target: HIV-1 Env of strain T251-18 (HIV-1)
[45] = target: HIV-1 Env of strain T255-34 (HIV-1)
[46] = target: HIV-1 Env of strain T278-50 (HIV-1)
[47] = target: HIV-1 Env of strain THRO4156.18 (HIV-1)
[48] = target: HIV-1 Env of strain TRJO4551.58 (HIV-1)
[49] = target: HIV-1 Env of strain WEAU_d15_410_787 (HIV-1)
[50] = target: HIV-1 Env of strain WITO4160.33 (HIV-1)
[51] = target: HIV-1 Env of strain X1193_c1 (HIV-1)
[52] = target: HIV-1 Env of strain X2131_C1_B5 (HIV-1)
[53] = target: HIV-1 Env of strain ZM109F.PB4 (HIV-1)
[54] = target: HIV-1 Env of strain ZM197M.PB7 (HIV-1)
[55] = target: HIV-1 Env of strain ZM233M.PB6 (HIV-1)
[56] = target: HIV-1 Env of strain ZM249M.PL1 (HIV-1)
[57] = target: HIV-1 Env of strain ZM53M.PB12 (HIV-1)

Substance: NIH45-46 G54Y IgG (antibody)
- In vitro neutralization IC80 [1]: 0.09 µg/mL
- In vitro neutralization IC80 [2]: 0.015 µg/mL
- In vitro neutralization IC80 [3]: 0.236 µg/mL
- In vitro neutralization IC80 [4]: 0.189 µg/mL
- In vitro neutralization IC80 [5]: > 50 µg/mL
- In vitro neutralization IC80 [6]: 0.23 µg/mL
- In vitro neutralization IC80 [7]: > 50 µg/mL
- In vitro neutralization IC80 [8]: 0.81 µg/mL
- In vitro neutralization IC80 [9]: 0.037 µg/mL
- In vitro neutralization IC80 [10]: 3.85 µg/mL
- In vitro neutralization IC80 [11]: 0.051 µg/mL
- In vitro neutralization IC80 [12]: 0.24 µg/mL
- In vitro neutralization IC80 [13]: > 50 µg/mL
- In vitro neutralization IC80 [14]: 0.059 µg/mL
- In vitro neutralization IC80 [15]: 0.33 µg/mL
- In vitro neutralization IC80 [16]: 0.9 µg/mL
- In vitro neutralization IC80 [17]: 0.052 µg/mL
- In vitro neutralization IC80 [18]: 0.27 µg/mL
- In vitro neutralization IC80 [19]: > 50 µg/mL
- In vitro neutralization IC80 [20]: 0.264 µg/mL
- In vitro neutralization IC80 [21]: 2.4 µg/mL
- In vitro neutralization IC80 [22]: 0.29 µg/mL
- In vitro neutralization IC80 [23]: 0.263 µg/mL
- In vitro neutralization IC80 [24]: 0.027 µg/mL
- In vitro neutralization IC80 [25]: 0.11 µg/mL
- In vitro neutralization IC80 [26]: 0.134 µg/mL
- In vitro neutralization IC80 [27]: 0.58 µg/mL
- In vitro neutralization IC80 [28]: 0.235 µg/mL
- In vitro neutralization IC80 [29]: 0.068 µg/mL
- In vitro neutralization IC80 [30]: 0.07 µg/mL
- In vitro neutralization IC80 [31]: 0.026 µg/mL
- In vitro neutralization IC80 [32]: > 50 µg/mL
- In vitro neutralization IC80 [33]: 2.75 µg/mL
- In vitro neutralization IC80 [34]: 0.049 µg/mL
- In vitro neutralization IC80 [35]: 0.09 µg/mL
- In vitro neutralization IC80 [36]: 0.034 µg/mL
- In vitro neutralization IC80 [37]: 0.103 µg/mL
- In vitro neutralization IC80 [38]: 0.024 µg/mL
- In vitro neutralization IC80 [39]: 0.045 µg/mL
- In vitro neutralization IC80 [40]: 0.02 µg/mL
- In vitro neutralization IC80 [41]: 0.02 µg/mL
- In vitro neutralization IC80 [42]: 0.09 µg/mL
- In vitro neutralization IC80 [43]: > 50 µg/mL
- In vitro neutralization IC80 [44]: 1.16 µg/mL
- In vitro neutralization IC80 [45]: 0.174 µg/mL
- In vitro neutralization IC80 [46]: > 50 µg/mL
- In vitro neutralization IC80 [47]: 2.14 µg/mL
- In vitro neutralization IC80 [48]: 0.07 µg/mL
- In vitro neutralization IC80 [49]: 8 ng/mL
- In vitro neutralization IC80 [50]: 0.09 µg/mL
- In vitro neutralization IC80 [51]: 0.024 µg/mL
- In vitro neutralization IC80 [52]: 0.39 µg/mL
- In vitro neutralization IC80 [53]: 0.168 µg/mL
- In vitro neutralization IC80 [54]: 0.21 µg/mL
- In vitro neutralization IC80 [55]: 0.78 µg/mL
- In vitro neutralization IC80 [56]: 0.011 µg/mL
- In vitro neutralization IC80 [57]: 0.22 µg/mL
